Experimental data published in publication PMC8233230, “RAD51AP1 mediates RAD51 activity through nucleosome interaction” (The Journal of Biological Chemistry, 2021).

Assays:
[1] = test system: RAD51AP1 full-length, His6/FLAG (human); assay: EMSA; conditions: apparent, EMSA: 50 mM Tris-HCl pH 7.5, 100 mM NaCl, 4 C, 30 min, native 5% PAGE in 0.2x TBE
[2] = target: mononucleosome core particle (NCP) (human) (UniProt P04908); assay: native gel or EMSA; apparent; full-length RAD51AP1 with the NCP, free NCP band quantified after ethidium bromide staining, corrected for the diminished staining of NCP-bound DNA
purified human RAD51 = target: T1, purified human RAD51 (human, UniProt Q06609 1-339); assay: far-Western, overlay or dot blot; RAD51AP1/NCP complex separated by EMSA (native gel), transferred to PVDF, membrane incubated with 3 ug/ml purified RAD51 in buffer I at 4 C overnight, bound RAD51 detected with anti-RAD51; conditions: both partners purified
T1 construct: DNA repair protein RAD51 homolog 1 (RAD51 recombinase), human; also called RAD51 recombinase; source: purified
T1 sequence (looked up): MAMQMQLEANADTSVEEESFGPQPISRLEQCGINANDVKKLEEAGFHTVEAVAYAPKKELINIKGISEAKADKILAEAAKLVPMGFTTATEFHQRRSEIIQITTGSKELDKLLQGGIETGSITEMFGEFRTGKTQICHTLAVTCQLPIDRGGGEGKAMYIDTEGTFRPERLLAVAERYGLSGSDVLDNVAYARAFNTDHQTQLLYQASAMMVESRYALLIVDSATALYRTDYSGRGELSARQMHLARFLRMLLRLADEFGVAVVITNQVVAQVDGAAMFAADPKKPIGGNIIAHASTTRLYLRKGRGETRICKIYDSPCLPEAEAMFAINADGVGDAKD

147 bp dsDNA (Widom 601) was tested. Which Kd ([1]; 0.1 uM DNA, EtBr stain) did it give?
The Kd was 12 nM.

For NCP (Widom 601, 147 bp), which Kd ([1]; corrected for EtBr staining (111/5.2; uncorrected 111 nM), 0.2 uM NCP) is on record?
Its Kd is 21 nM.

“full-length MBP-/His6-RAD51AP1 (from UniProt Q96B01-2 1-335) (natural protein)” was tested. Which Kd [2] did it give?
Its Kd is 21 nM.

B1: His6-/FLAG-tagged human RAD51AP1 (natural protein, UniProt Q96B01-2 1-335, looked up)
chain: MVRPVRHKKPVNYSQFDHSDSDDDFVSATVPLNKKSRTAPKELKQDKPKPNLNNLRKEEIPVQEKTPKKRMALDDKLYQRDLEVALALSVKELPTVTTNVQNSQDKSIEKHGSSKIETMNKSPHISNCSVASDYLDLDKITVEDDVGGVQGKRKAASKAAAQQRKILLEGSDGDSANDTEPDFAPGEDSEDDSDFCESEDNDEDFSMRKSKVKEIKKKEVKVKSPVEKKEKKSKSKCNALVTSVDSAPAAVKSESQSLPKKVSLSSDTTRKPLEIRSPSAESKKPKWVPPAASGGSRSSSSPLVVVSVKSPNQSLRLGLSRLARVKPLHPNATST
notes: numbers count on: RAD51AP1 isoform 2; also called His6/FLAG-tagged RAD51AP1; full-length FLAG-tagged RAD51AP1; source: expressed and purified
Does B1 bind (purified human RAD51)?
Result: binds
